Reference: US20080026992

Assays:
[1] = test system: mutant p27 Y88F, phosphorylated on Tyr-89 by recombinant Abl kinase
[2] = test system: p27Kip1, recombinant, tyrosine-phosphorylated in vitro by Abl kinase (Tyr-88 phosphorylated p27)
[3] = test system: p27Kip1, recombinant, unphosphorylated

Sequence of mutant p27 Y88F, phosphorylated on Tyr-89 by recombinant Abl kinase (chain, as listed by the source Y88F): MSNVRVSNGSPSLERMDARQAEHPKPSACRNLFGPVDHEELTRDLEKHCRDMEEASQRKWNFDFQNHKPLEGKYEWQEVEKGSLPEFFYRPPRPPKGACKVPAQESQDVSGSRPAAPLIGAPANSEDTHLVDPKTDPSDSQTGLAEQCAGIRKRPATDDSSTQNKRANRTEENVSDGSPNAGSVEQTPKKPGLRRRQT

CDK2/cyclin A complex, recombinant, purified from Sf9 insect cells
phosphorylation of Thr-187 of p27 in CDK2 kinase complexes (Western blot with a phospho-threonine 187 specific antibody) [1]: a mutant phosphorylated on Tyr-89 is not a good substrate for CDK2-dependent phosphorylation (FIG. 5b)
phosphorylation of Thr-187 of p27 in CDK2 kinase complexes (Western blot with a phospho-threonine 187 specific antibody) [2]: Phosphorylation of Thr-187 was indeed strongly enhanced if Tyr-88 phosphorylated p27 was incubated in CDK2 kinase complexes (FIG. 5b)
phosphorylation of p27 by CDK2 within p27/CDK2/cyclin A complexes (32P incorporation) [2]: the tyrosine phosphorylated protein was a good substrate for CDK2 phosphorylation (FIG. 5a)
phosphorylation of p27 by CDK2 within p27/CDK2/cyclin A complexes (32P incorporation) [3]: As expected, p27 was poorly phosphorylated due to the absence of free kinase
